Earlier results on one substance are cited in paper PMC7609432.

Read-outs that look alike come from different tables or passages of the source. Bounds are passed on as bounds.

For orientation: Kd means the equilibrium constant for the complex coming apart.

Data set [1] concerns the target IQGAP1 (Danio rerio). The data set can be described thus: SW-FCCS.
Data set [2] deals with IQGAP1 (Danio rerio). The experiment in a line: SW-FCCS. The source holds these as a separate data set.
IQGAP1 (Danio rerio), sequence (P46940 2-1657): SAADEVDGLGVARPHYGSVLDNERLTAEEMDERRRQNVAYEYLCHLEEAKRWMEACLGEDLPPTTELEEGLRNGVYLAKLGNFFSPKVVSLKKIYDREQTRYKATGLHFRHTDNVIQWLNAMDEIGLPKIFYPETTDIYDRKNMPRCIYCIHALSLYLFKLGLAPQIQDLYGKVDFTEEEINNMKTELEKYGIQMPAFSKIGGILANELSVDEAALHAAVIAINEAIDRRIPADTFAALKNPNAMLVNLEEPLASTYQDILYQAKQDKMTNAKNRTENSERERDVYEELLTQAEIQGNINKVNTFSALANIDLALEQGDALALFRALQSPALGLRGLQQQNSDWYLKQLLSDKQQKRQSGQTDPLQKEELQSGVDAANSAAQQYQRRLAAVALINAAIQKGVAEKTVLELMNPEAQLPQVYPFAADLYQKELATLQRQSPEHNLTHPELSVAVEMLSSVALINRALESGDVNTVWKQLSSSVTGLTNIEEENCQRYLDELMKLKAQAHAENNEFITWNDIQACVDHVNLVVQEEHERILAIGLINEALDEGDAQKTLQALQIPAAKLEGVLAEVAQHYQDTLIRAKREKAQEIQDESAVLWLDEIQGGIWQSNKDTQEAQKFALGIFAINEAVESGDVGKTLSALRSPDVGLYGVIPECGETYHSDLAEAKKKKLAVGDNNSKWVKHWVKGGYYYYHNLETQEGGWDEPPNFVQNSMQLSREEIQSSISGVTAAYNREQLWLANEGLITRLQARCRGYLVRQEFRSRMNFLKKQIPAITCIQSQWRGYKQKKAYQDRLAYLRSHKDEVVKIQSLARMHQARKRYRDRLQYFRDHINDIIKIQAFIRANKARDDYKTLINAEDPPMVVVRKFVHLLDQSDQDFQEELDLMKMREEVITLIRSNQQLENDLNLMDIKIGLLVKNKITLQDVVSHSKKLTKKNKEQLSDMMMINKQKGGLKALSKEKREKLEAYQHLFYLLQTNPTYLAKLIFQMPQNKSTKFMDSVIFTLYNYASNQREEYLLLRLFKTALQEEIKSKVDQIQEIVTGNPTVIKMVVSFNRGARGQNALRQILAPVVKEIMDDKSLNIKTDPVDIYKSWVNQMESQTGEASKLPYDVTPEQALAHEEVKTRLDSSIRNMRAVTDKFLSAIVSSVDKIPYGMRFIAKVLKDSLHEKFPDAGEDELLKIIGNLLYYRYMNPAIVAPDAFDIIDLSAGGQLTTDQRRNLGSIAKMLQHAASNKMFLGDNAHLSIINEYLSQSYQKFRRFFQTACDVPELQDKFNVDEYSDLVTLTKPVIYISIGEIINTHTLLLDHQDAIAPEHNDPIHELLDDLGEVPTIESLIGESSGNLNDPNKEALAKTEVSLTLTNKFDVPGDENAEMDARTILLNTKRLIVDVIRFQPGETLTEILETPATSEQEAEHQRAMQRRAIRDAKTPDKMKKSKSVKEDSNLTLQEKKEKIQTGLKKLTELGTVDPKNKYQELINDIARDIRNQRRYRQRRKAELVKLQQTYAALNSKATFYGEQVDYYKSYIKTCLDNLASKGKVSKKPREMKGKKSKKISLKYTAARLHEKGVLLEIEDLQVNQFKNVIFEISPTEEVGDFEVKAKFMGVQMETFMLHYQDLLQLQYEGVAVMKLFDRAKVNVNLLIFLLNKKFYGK

For the substance Cdc42 (from UniProt P60953), the Kd is greater than 1500 nM with IQGAP1 (Danio rerio) [1] and 105 nM with IQGAP1 (Danio rerio) [2].
